Experimental data as given in the DeepSol protein solubility set.

Assay: soluble on expression in E. coli; label from the status in PepcDB or PDB records

| Sequence | soluble on expression in E. coli |
| --- | --- |
| MKDGMRVGERFTHDFVVPPHKTVRHLYPESPEFAEFPEVFATGFMVGLMEWACVRAMAPYLEPGEGSLGTAICVTHTAATPPGLTVTVTAELRSVEGRRLSWRVSAHDGVDEIGSGTHERAVIHLEKFNAKVRQKTPAG | soluble |
| MTVSREVELEGHIIDSGMMQSCFGIIMDLGGSFSVQKFDIGRHKDEESYARMLVEADDEAQLQSIVHELHQHGVNPSDPKDATLVPAPDDQVVPHGFYSTTNHPLEHHHHHH | not soluble |
| MEANKKAKPSYGDVISNLPNDLLCRILSYLSTKEAALTSILSKRWSNLLLSIPILDFDDSVLLKPQKGQRKNVFFKAFVDRLLSQRVETSSHVQRVSLKCRQGGVEPDCVIKWILTTVRDLGVLDLSLCIDFGIFHLPFNVFRSKTLVKLRIGTMIRLSQFPSDVVSPTLNSLVLDLVEFRDGDKVEFRQILLAFPSLQSLRVHESNKWKFWNGSASSRTLKSLVYRSDDDSSAPKPCVSFDTPSLVYLDYSDMVADKYENLKFDSLVEARLDLHLTAFQIMRKPNNIGIVSGDVTTLFKGIRNVKILCLSPDALEALYYRGEKIPMFNNLITLSLGSDKPHGSPFIFWKLLPSLLNNSLKLETLIIKGLVHYVAEGWEGLSPMTPMSRLCFSWDTVSDSLSSSAMKVLEISGYKGTWQELNQMKRFLGNLSRLEVVRVYHKAMDDKERINVMFDLFLLPKVSSECDIQVMKETA | soluble |
| MRTIPPDDVYISSTLPFEETTTEMMTTMETSTMTEKVCPEMPATTCMDLIKLGAKLELAEVDGCQVVQCTGGQIPRLITRNSVFSPKLYAGLSDATIVFPVPPTTLAGFGGKSFFDYYGLICDTFNGNFYWTMTKYPDGLIDLGGGQPILGSDGSYDGKQAPIEQVDCQEPK | not soluble |
| MEKLYDVIVVGAGTSGMMAAISAAEQGARVLLIEKNKKAGKKLLMTGGGRCNVTNNRPVDDLIAHIPGNGKFLYSTFAQWNNFDIMNFFESQGVHLKEEDHGRMFPVTNKSKTIIEALLNRLKELDVTLLFSTRVEKLIHKEHKIYGIRTEFEEFHAPAIILTTGGRTYPSTGSTGDGYKIVKRVGHTVTPLYATESPLISDEPYIQEKTLQGLSLQDITLRVLNKKGRVLTEHTMDLLFTHFGISGPAALRCSSFVNKELEKTGEPVTLSLDCFPTQTKQELIHILTEKSKATKKNLVNAWHGILPERLLVFFLERLEMDHLTGQQASQKQIQDFVQLCKEFKLSINKTFPIEKSFVTGGGVSLKEIYPKTLESKIIDGLYFAGELLDVNGYTGGFNITAAFATGHVAGMNAGQRA | soluble |
| MGSDKIHHHHHHMTPKRFAFVIADLYGGGAEKSLLYTAAGLHQRGHTVKVFILRDRIEQPIPDGVTVENLALINRFSKMFSTPLVEKWQAARIARTLDDFAADVVLSCSCDKITRHLRHPNLWFWIKSDISAKFSDPDQRAKAFAKVHRFYTGRNVVAVSQGVKDNLLDVIGLRPAEIRAIYNPYEREPFLRLAEEPAPVPEGEYLINVGTYEPRKRHDRLLRAYKASGVTTPLVLLGKGKGDEEARLRKMIEDMGLAERVILPGYQTNPYPFIRHAKALILTSDAEGLPRALIESLLLGTPVVSVDCPSGPREILAGELADFLVPREDEAALADAIARMDAAPITVTEAHYRPFLKETVLPQFEALARSA | not soluble |
| MGSDKIHHHHHHMYYRPADGHGLPHNPFNAIVSPRPIGWISTRGEGGGDNLAPYSFFNAVAYEPPQVMFSSTSAKEDRGDTKDSVANIRETGVFCVNIVEYAARDAMNETSGPWPATEDEFQRAGIERADCTEIPCSRVASAPANLECRVTQIIKLEGAHNFAVFGEVVGVHIRDDVLVDGHFDVTRFNPLTRMGYRDYSVIRDVFSLKRPGE | not soluble |
| MGSDKIHHHHHHMTTWVLLRGLMRDQRHWNGFDQRLRQKGLRVLTPDLPGNGTLSTEASPLKIADYAHAVWLQLDEQVQEGETIYLLGLSMGGMLALEMARQRPWLIRHVFVLNSSAANLSAWYQRFNPLNALKAFFLRARGKALHPIESTIVRLTSFRHRLDCGLIAEWSEFRRQSSPTIRNAWRQLWAAFQYQCPLTVEVPISVLCGDRDALVSMASSKALALHFHTDLIVLAYCGHDAAIDAPAKLAHYLLAIVAPTKLQAEVQEDDEPAHAQYAHTQYSCNDLLEEEMAFNEAIFSVWDEKALSTLHSKSSAMNSAKTVNS | not soluble |
| MGSDKIHHHHHHMKIDLNADLGEGCASDAELLTLVSSANIACGFHAGDAQIMQACVREAIKNGVAIGAHPSFPDRENFGRSAMQLPPETVYAQTLYQIGALATIARAQGGVMRHVKPHGMLYNQAAKEAQLADAIARAVYACDPALILVGLAGSELIRAGKQYGLTTREEVFADRGYQADGSLVPRSQSGALIENEEQALAQTLEMVQHGRVKSITGEWATVAAQTVCLHGDGEHALAFARRLRSAFAEKGIVVAA | not soluble |
| MNSNGPLMEHGKRRVAYYYDSNIGNYYYGQGHVMKPHRIRMTHHLVLNYGLYRNLEIFRPFPASFEDMTRFHSDEYMTFLKSANPDNLKSFNKQMLKFNVGEDCPLFDGLYEFCQLSSGGSLAAATKLNKQKVDIAINWMGGLHHAKKSEASGFCYTNDIVLGILELLKYHKRVLYVDIDVHHGDGVEEAFYTTDRVMTVSFHKYGDFFPGTGDLKDIGAGKGKLYSVNVPLRDGITDVSYQSIFKPIMTKVMERFDPCAVVLQCGADSLNGDRLGPFNLTLKGHGECARFFRSYNVPLMMVGGGGYTPRNVARCWTYETSIAVDKEVPNELPYNDYFEYFGPNYRLHIESSNAANENSSDMLAKLQTDVIANLEQLTFVPSVQMRPIPEDALSALNDDSLIADQANPDKRLPPQITDGMIQDDGDFYDGEREGDDRRNESDAKRAAQFESEGGEKRQKTE | not soluble |
| SDDFDMLSAPQGSAGNGVGADEDPAAAFLAQQESEIAGIENDEGFSILDSGDVPSSLSQDQDGGAMNGDLHGESNGPSDVYAAISSVDRLQAEPESLRKWREEQRDRLEELDANSRKQEAEWKEKAKLELEEWHTRQNEQLEKTKVNNRVLDEDFYKQPFADLIGYVTHINHPCYRLDQAAEEAMVSELDENSPGTEWERVARLCDFNPKSSKQAKDVSRMRSVLISLKQAPLVR | soluble |
| SSRHVFLTGPPGVGKTTLIQKAIEVLQSSGLPVDGFYTQEVRQEGKRIGFDVVTLSGAQGPLSRVGSQPLPGKPECRVGQYVVNLDSFEQLALPVLRNAGSSCGPKHRVCIIDEIGKMELFSQPFIQAVRQMLSTPGIIVVGTIPVPKGKPLALVEEIRKRRDVKVFNVTRDNRNSLLPDIVAVVQSSRT | soluble |
| MHNKWYWTFKHILWGPILRVYNRPEIHGLENIPDKGSAILASNHQAVMDSFYLPLMSPRQITFPAKQEYFTTPGFVGSLQRWFFTAVGQVPIDRTSKSASDDLLKTARMVLDRGDLFGIYPEGTRSPDGRIYRGKTGMARIALDTNVAVVPIAMIGSRDANPIGTWIPRPHKVVIKVGEAISPRSFVSDAGYDPDSYEAMRFFTDHVMKVLADLTGQQYVDLYAADVKKSLAAGKGYPEGA | not soluble |
| MLSLAFGVNDIYEYEGKEYKLDLAFDNVLRVIDLTEDNSLSDVFRANLAIDVLFADDMPWPRSNEEDEYANIEEKSLVLIDIFTNYIVKENDDGLLYDIDGNKMPSATNNEDAEEIASYSLTQDADYIYASFLQDYNIDLLDSRGKMHWYKFRALLESLRDDTTIKTIIGIRQAELPSGKGTEKERNELIKLKNRYKLKD | not soluble |
| MDNNIDFIVTWVNGGDPDWLKKKNKYLPVNESNENMNSESRYRDFDIFKFWFRAVEKFAPWVHKIYLITDNQVPDWLDTRNSKLTVIDHRDIMDADWLPTFNSNAIELNAYKIKNLSEKFVLFNDDTILNSYVDKVDFFDENYPKDIYVESPIMATKGSVDHIMVNNVEIINEFFEKKNFYKKNLTKVFNPKIGIKLLRTLALLPSSKFAGFWNSHLPISYNKTTFETVWSNCEGKLVATSKNKFRTAYDVSHWLMRYWQLASGNYHLQNNIGKVYDLSSQNIDEVVTQLQRSHSKIICLNDNDELDDYEGVKGKLVTTLNEKFSEKSKFELLEHHHHHH | soluble |
